This note sets out measurements from patent US20190345206A1 (MOMENTA PHARMACEUTICALS, published 2019).

The target in one experiment is T1, FcγRIIIa V158 (UniProt P08637 17-254, limits assumed).
T1 construct: whole, on cells; V158 is the allotype as printed (mature numbering); also called CD16a
The experiment in a line: cell-based TR-FRET competition assay (CISBIO kit), FcγRIIIa V158 cells. How it is done:
(§1) A cell-based binding assay was utilized to confirm that the amino acid modifications at positions I253, e.g., I253A, and R292, e.g., R292P, were specific to the intended receptors, e.g., reduced binding affinity to the FcRn receptor and FcγRIIb receptor, respectively. Relative binding of Fc constructs and controls to Fc gamma receptors (FcγRs) was measured using cell-based homogeneous time-resolved fluorescence resonance energy transfer (TR-FRET) competition assays (CISBIO®) kits for FcγRI, FcγRIIa H131, FcγRIIb, and FcγRIIIa V158. Assay reagents were prepared according to the manufacturer's instructions. A 10-point, 3-fold serial dilution series, plus one blank per sample, was generated using an automated liquid handler (Freedom EVOware 150, TECAN®). Assay plates were read on a PHERAstar fluorescent reader (BMG Labtech GmbH) at 665 and 620 nm. An IgG1 sample was used as a control.

A further experiment deals with T2, FcγRI (UniProt P12314 16-374, limits assumed).
T2 construct: whole, on cells; also called CD64
In words: cell-based TR-FRET competition assay (CISBIO kit), FcγRI cells. The method, then: as §1

A further experiment addresses T3, Recombinant human FcRn (human, UniProt P55899 24-297; P61769 21-119, limits assumed).
T3 construct: also called neonatal Fc receptor
The experiment in a line: SPR at pH 6.0; human FcRn in solution over Fc construct captured by goat anti-human IgG. An excerpt:
To assess the impact of the amino acid modifications at position I253, e.g., I253A, and R292, e.g., R292P, on FcRn binding a surface plasmon resonance (SPR) binding experiment was designed to measure the affinity and normalized binding level of solution-phase human FcRn to sensor-bound Fc constructs at pH 6.0. A goat anti-human IgG was immobilized on reference and test sensor surfaces using amine coupling chemistry. Fc constructs were captured on the test sensor surface. Recombinant human FcRn was flowed over the sensor surface in a dilution series with a top concentration of 1.0 μM. The sensor surface was regenerated at the end of each cycle with 10 mM glycine pH 1.7. Double-reference subtracted sensorgrams were subjected to equilibrium binding analysis; the maximum binding level (RMax) and the equilibrium dissociation constant (KD) were estimated. The normalized maximum binding level was calculated by dividing the RMax by the FC-construct capture level. Construct 16 was captured at the same level as construct 4, […] (FIG. 20).

T3 sequence (P55899 24-297 limits assumed, chain 1 of 2): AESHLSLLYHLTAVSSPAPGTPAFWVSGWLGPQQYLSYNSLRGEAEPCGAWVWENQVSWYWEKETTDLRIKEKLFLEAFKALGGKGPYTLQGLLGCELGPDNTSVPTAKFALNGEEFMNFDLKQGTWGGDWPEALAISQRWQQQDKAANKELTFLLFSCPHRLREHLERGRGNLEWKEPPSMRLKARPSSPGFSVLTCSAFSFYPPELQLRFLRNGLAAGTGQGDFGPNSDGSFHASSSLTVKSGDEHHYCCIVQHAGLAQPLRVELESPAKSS
T3 sequence (P61769 21-119 limits assumed, chain 2 of 2): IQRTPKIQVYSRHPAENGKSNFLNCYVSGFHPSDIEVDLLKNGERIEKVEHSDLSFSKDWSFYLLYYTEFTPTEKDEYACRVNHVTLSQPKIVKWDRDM
T2 sequence (P12314 16-374 limits assumed): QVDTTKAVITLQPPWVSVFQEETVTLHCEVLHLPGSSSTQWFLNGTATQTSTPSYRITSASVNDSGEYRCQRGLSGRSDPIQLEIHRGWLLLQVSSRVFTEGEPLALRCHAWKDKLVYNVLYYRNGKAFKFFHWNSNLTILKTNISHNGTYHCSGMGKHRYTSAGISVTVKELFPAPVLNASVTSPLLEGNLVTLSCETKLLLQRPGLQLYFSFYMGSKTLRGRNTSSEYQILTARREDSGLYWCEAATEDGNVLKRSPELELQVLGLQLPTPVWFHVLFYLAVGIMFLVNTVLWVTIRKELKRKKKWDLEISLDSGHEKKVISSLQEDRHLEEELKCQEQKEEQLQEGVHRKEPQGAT
T1 sequence (P08637 17-254 F176V limits assumed): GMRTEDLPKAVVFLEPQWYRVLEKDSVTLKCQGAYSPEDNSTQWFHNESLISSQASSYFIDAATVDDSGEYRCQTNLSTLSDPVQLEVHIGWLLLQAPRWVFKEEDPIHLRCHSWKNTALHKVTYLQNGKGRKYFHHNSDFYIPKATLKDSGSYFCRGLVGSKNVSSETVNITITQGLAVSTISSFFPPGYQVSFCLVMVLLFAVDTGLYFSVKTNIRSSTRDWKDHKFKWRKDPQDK

B1: Fc construct 18 (other)
chain 1: DKTHTCPPCPAPELLGGPSVFLFPPKPKDTLMASRTPEVTCVVVDVSHEDPEVKFNWYVDGVEVHNAKTKPPEEQYNSTYRVVSVLTVLHQDWLNGKEYKCKVSNKALPAPIEKTISKAKGQPREPQVYTLPPCRDKLTKNQVSLWCLVKGFYPSDIAVEWESNGQPENNYKTTPPVLDSDGSFFLYSKLTVDKSRWQQGNVFSCSVMHEALHNHYTQKSLSLSPGKGGGGGGGGGGGGGGGGGGGGDKTHTCPPCPAPELLGGPSVFLFPPKPKDTLMISRTPEVTCVVVDVSHEDPEVKFNWYVDGVEVHNAKTKPPEEQYNSTYRVVSVLTVLHQDWLNGKEYKCKVSNKALPAPIEKTISKAKGQPREPQVYTLPPSRDELTKNQVSLTCLVKGFYPSDIAVEWESNGQPENNYKTTPPVLKSDGSFFLYSDLTVDKSRWQQGNVFSCSVMHEALHNHYTQKSLSLSPG
chain 2: DKTHTCPPCPAPELLGGPSVFLFPPKPKDTLMASRTPEVTCVVVDVSHEDPEVKFNWYVDGVEVHNAKTKPPEEQYNSTYRVVSVLTVLHQDWLNGKEYKCKVSNKALPAPIEKTISKAKGQPREPQVCTLPPSRDELTKNQVSLSCAVDGFYPSDIAVEWESNGQPENNYKTTPPVLDSDGSFFLVSKLTVDKSRWQQGNVFSCSVMHEALHNHYTQKSLSLSPG
notes: Construct 4 with R292P in all three Fc domains and I253A in the two N-terminal Fc domains; also called Q1
Take B1: the binding result in the experiment with FcγRIIIa V158 and with FcγRI was “binds” in each case.

B2: Fc construct 19 (other)
chain 1: DKTHTCPPCPAPELLGGPSVFLFPPKPKDTLMASRTPEVTCVVVDVSHEDPEVKFNWYVDGVEVHNAKTKPPEEQYNSTYRVVSVLTVLHQDWLNGKEYKCKVSNKALPAPIEKTISKAKGQPREPQVYTLPPCRDKLTKNQVSLWCLVKGFYPSDIAVEWESNGQPENNYKTTPPVLDSDGSFFLYSKLTVDKSRWQQGNVFSCSVMHEALHNHYTQKSLSLSPGKGGGGGGGGGGGGGGGGGGGGDKTHTCPPCPAPELLGGPSVFLFPPKPKDTLMASRTPEVTCVVVDVSHEDPEVKFNWYVDGVEVHNAKTKPPEEQYNSTYRVVSVLTVLHQDWLNGKEYKCKVSNKALPAPIEKTISKAKGQPREPQVYTLPPSRDELTKNQVSLTCLVKGFYPSDIAVEWESNGQPENNYKTTPPVLKSDGSFFLYSDLTVDKSRWQQGNVFSCSVMHEALHNHYTQKSLSLSPG
chain 2: DKTHTCPPCPAPELLGGPSVFLFPPKPKDTLMASRTPEVTCVVVDVSHEDPEVKFNWYVDGVEVHNAKTKPPEEQYNSTYRVVSVLTVLHQDWLNGKEYKCKVSNKALPAPIEKTISKAKGQPREPQVCTLPPSRDELTKNQVSLSCAVDGFYPSDIAVEWESNGQPENNYKTTPPVLDSDGSFFLVSKLTVDKSRWQQGNVFSCSVMHEALHNHYTQKSLSLSPG
notes: Construct 4 with R292P and I253A in all three Fc domains; also called Q2
Take B2: the binding result with Recombinant human FcRn is recorded as “no binding (tested: top concentration of 1.0 µM)”.
